According to patent US20150044250A1 (INTERVET, published 2015):
Changes are numbered by the printed parent chain. In names and notes the source's numbering stands.

Legend:
[1] = molecular target: the molecule itself; test: SEC-UV (self-association)
[2] = molecular target: the molecule itself; test: SEC-MALS (self-association)

B1: 3mCDTa1 (CDTa minus the signal peptide with R302A, E385A and E387D) (enzyme)
chain: MVCNTTYKAPIERPEDFLKDKEKAKEWERKEAERIEQKLERSEKEALESYKKDSVEISKYSQTRNYFYDYQIEANSREKEYKELRNAISKNKIDKPMYVYYFESPEKFAFNKVIRTENQNEISLEKFNEFKETIQNKLFKQDGFKDISLYEPGKGDEKPTPLLMHLKLPRNTGMLPYTNTNNVSTLIEQGYSIKIDKIVRIVIDGKHYIKAEASVVSSLDFKDDVSKGDSWGKANYNDWSNKLTPNELADVNDYMRGGYTAINNYLISNGPVNNPNPELDSKITNIENALKREPIPTNLTVYARSGPQEFGLTLTSPEYDFNKLENIDAFKSKWEGQALSYPNFISTSIGSVNMSAFAKRKIVLRITIPKGSPGAYLSAIPGYAGAYDVLLNHGSKFKINKIDSYKDGTITKLIVDATLIP
B1: binds [1].

B2: 4mCDTa8 (CDTa minus the signal peptide with S345F, E385Q, E387Q and C2A) (enzyme)
chain: B1 chain with C3A, A303R, S346F, A386Q, D388Q
B2: no binding [2].
